Where a chain is given by its changes, count along the chain named. In names and notes the source's numbering stands.
B1: H183/L072 VL H27dL (antibody, name in Kabat numbering, V domains shown)
VH: QVQLVESGGGLVQPGRSLRLSCAASGFTFSNAWMHWVRQAPGKGLEWVAQIKDKGNAYAAYYAPSVKGRFTISRDDSKNSIYLQMNSLKTEDTAVYYCHYVHYASASTVLPAFGVDAWGQGTTVTVSS
VL: DIVMTQSPLSLPVTPGEPASISCQASQELVLMNRNTYLHWYQQKPGQAPRLLIYKVSNRFPGVPDRFSGSGSGTDFTLKISRVEAEDVGVYYCAQGTSVPFTFGQGTKLEIK
B2: H183/L072 VL N28L (antibody, name in Kabat numbering, V domains shown)
VH: B1 VH
VL: B1 VL with L31H, N33L
B3: H183/L072 VL H27dM (antibody, name in Kabat numbering, V domains shown)
VH: B1 VH
VL: B1 VL with L31M
B4: H183/L072 VL N28M (antibody, name in Kabat numbering, V domains shown)
VH: B1 VH
VL: B1 VL with L31H, N33M
B5: H183/L072 VL T31M (antibody, name in Kabat numbering, V domains shown)
VH: B1 VH
VL: B1 VL with L31H, T36M
B6: H183/L072 VL Y32M (antibody, name in Kabat numbering, V domains shown)
VH: B1 VH
VL: B1 VL with L31H, Y37M
B7: H183/L072 VL H34M (antibody, name in Kabat numbering, V domains shown)
VH: B1 VH
VL: B1 VL with L31H, H39M
B8: H183/L072 VL Q24P (antibody, name in Kabat numbering, V domains shown)
VH: B1 VH
VL: B1 VL with Q24P, L31H
B9: H183/L072 VL Q27P (antibody, name in Kabat numbering, V domains shown)
VH: B1 VH
VL: B1 VL with Q27P, L31H
B10: H183/L072 VL V27cP (antibody, name in Kabat numbering, V domains shown)
VH: B1 VH
VL: B1 VL with V30P, L31H
B11: H183/L072 VL H27dP (antibody, name in Kabat numbering, V domains shown)
VH: B1 VH
VL: B1 VL with L31P
B12: H183/L072 VL N28P (antibody, name in Kabat numbering, V domains shown)
VH: B1 VH
VL: B1 VL with L31H, N33P
B13: H183/L072 VL R29P (antibody, name in Kabat numbering, V domains shown)
VH: B1 VH
VL: B1 VL with L31H, R34P
B14: H183/L072 VL N30P (antibody, name in Kabat numbering, V domains shown)
VH: B1 VH
VL: B1 VL with L31H, N35P
B15: H183/L072 VL T31P (antibody, name in Kabat numbering, V domains shown)
VH: B1 VH
VL: B1 VL with L31H, T36P
B16: H183/L072 VL Y32P (antibody, name in Kabat numbering, V domains shown)
VH: B1 VH
VL: B1 VL with L31H, Y37P
B17: H183/L072 VL L33P (antibody, name in Kabat numbering, V domains shown)
VH: B1 VH
VL: B1 VL with L31H, L38P
B18: H183/L072 VL H34P (antibody, name in Kabat numbering, V domains shown)
VH: B1 VH
VL: B1 VL with L31H, H39P
B19: H183/L072 VL H27dV (antibody, name in Kabat numbering, V domains shown)
VH: B1 VH
VL: B1 VL with L31V
B20: H183/L072 VL N28V (antibody, name in Kabat numbering, V domains shown)
VH: B1 VH
VL: B1 VL with L31H, N33V
B21: H183/L072 VL Y32V (antibody, name in Kabat numbering, V domains shown)
VH: B1 VH
VL: B1 VL with L31H, Y37V
B22: H183/L072 VL H34V (antibody, name in Kabat numbering, V domains shown)
VH: B1 VH
VL: B1 VL with L31H, H39V
B23: H183/L072 VL L27bG (antibody, name in Kabat numbering, V domains shown)
VH: B1 VH
VL: B1 VL with L29G, L31H
B24: H183/L072 VL V27cG (antibody, name in Kabat numbering, V domains shown)
VH: B1 VH
VL: B1 VL with V30G, L31H
B25: H183/L072 VL H27dR (antibody, name in Kabat numbering, V domains shown)
VH: B1 VH
VL: B1 VL with L31R
B26: H183/L072 VL N28R (antibody, name in Kabat numbering, V domains shown)
VH: B1 VH
VL: B1 VL with L31H, N33R
B27: H183/L072 VL N28F (antibody, name in Kabat numbering, V domains shown)
VH: B1 VH
VL: B1 VL with L31H, N33F
B28: H183/L072 VL T31F (antibody, name in Kabat numbering, V domains shown)
VH: B1 VH
VL: B1 VL with L31H, T36F
B29: H183/L072 VL Y32F (antibody, name in Kabat numbering, V domains shown)
VH: B1 VH
VL: B1 VL with L31H, Y37F
B30: H183/L072 VL L27bW (antibody, name in Kabat numbering, V domains shown)
VH: B1 VH
VL: B1 VL with L29W, L31H
B31: H183/L072 VL H27dW (antibody, name in Kabat numbering, V domains shown)
VH: B1 VH
VL: B1 VL with L31W
B32: H183/L072 VL N28W (antibody, name in Kabat numbering, V domains shown)
VH: B1 VH
VL: B1 VL with L31H, N33W
B33: H183/L072 VL T31W (antibody, name in Kabat numbering, V domains shown)
VH: B1 VH
VL: B1 VL with L31H, T36W

These binders were tested against Human CD3eg linker (human) (assay: SPR; fold vs parent H183/L072).
Human CD3eg linker (human), sequence (chain, as listed by the source limits assumed): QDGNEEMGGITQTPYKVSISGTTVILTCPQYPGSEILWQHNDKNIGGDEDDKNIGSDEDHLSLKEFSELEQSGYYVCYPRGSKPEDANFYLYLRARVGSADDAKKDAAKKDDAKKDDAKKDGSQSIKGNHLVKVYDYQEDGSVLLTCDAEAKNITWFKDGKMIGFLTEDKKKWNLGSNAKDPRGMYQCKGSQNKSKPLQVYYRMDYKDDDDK

Fold change of affinity, 0 fold:
B1
B2
B3
B4
B5
B6
B7
B8
B9
B10
B11
B12
B13
B14
B15
B16
B17
B18
B19
B20
B21
B22
B23
B24
B25
B26
B27
B28
B29
B30
B31
B32
B33

Reference: patent US20210388087A1
